Reference: US20250276075A1, “METHODS OF TREATING AXL-EXPRESSING CANCERS WITH ANTI-AXL ANTIBODIES, ANTIBODY FRAGMENTS AND THEIR IMMUNOCONJUGATES” (BIOATLA, INC., priority 2020, published 2025)

T1: Axl (Homo sapiens, UniProt P30530)
T1 sequence (P30530 26-451 limits assumed): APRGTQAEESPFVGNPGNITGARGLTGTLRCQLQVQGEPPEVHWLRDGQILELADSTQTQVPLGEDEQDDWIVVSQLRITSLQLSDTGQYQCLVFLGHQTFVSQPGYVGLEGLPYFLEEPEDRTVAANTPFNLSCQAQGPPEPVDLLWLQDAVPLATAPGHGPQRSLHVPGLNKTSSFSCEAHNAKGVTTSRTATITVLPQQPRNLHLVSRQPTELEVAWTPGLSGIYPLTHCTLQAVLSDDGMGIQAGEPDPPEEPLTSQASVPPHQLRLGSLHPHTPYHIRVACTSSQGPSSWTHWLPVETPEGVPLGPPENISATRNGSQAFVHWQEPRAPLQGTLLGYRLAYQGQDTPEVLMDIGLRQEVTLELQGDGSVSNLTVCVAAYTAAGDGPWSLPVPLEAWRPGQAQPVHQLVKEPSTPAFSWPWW


What was measured:
[1] = target: Axl (UniProt P30530); test: ELISA, 1:9 dilution
[2] = target: T1, Axl; test: Affinity ELISA of CPE mutant antibodies for binding to Axl at pH 6.0 over pH 7.4; settings: light chain variable region mutants; for Affinity ELISA CPE mutant ratio (1:3, pH 6.0/7.4): 1:3 dilution; for Affinity ELISA CPE mutant ratio (1:9, pH 6.0/7.4): 1:9 dilution
Source text: The DNA encoding the wild-type antibody was evolved to generate a mutant antibody library using Comprehensive Positional Evolution (CPE), which each position in the template antibody is randomized one at a time. Each mutant antibody in the library has only one single point mutation. The mutant antibodies in the library were generated by simultaneously screening for selective binding affinity to Axl at pH 6.0 over pH 7.4 by ELISA. Two mutant antibody dilutions were used: 1:3 and 1:9 dilutions. The mutant antibodies that have at least 1.5 ratio of binding affinity at pH 6.0 to at pH 7.4 under either 1:3 or 1:9 dilution are selected as conditionally active antibodies, with the single point mutations indicated in each of the heavy chain and light chain variable region (Tables 1 and 2).
A wild-type antibody to Axl was selected as the template antibody (with a heavy chain variable region of 063-hum10F10-HC in FIG. 1A and a light chain variable region of […]). The DNA encoding the wild-type antibody was evolved to generate a mutant antibody library using Comprehensive Positional Evolution (CPE), a method by which each position in the template antibody is randomized one at a time. Each mutant antibody in the library has only one single point mutation. The mutant antibodies in the library were generated by simultaneously screening for selective binding affinity to Axl at pH 6.0 over pH 7.4 as determined by ELISA.
Simultaneously, the expression level of the mutant antibodies was also optimized for the purpose of higher fields in a manufacturing process. The screening was done in serum using a FLAG tag because there were human antibodies in the serum which might cause false positives for the screening. The screening buffer was a carbonate buffer (Krebs buffer with ringer-standard buffer but different from PBS). […] Some of the selected mutant antibodies (scFv) were represented in FIG. 2 with their higher activity at pH 6.0 than at pH 7.4, while their activity ratios between pH 6.0 to pH 7.4 were at least 11 fold (FIG. 3).

[3] = target: Axl (UniProt P30530); test: ELISA, 1:3 dilution

Molecule	Affinity ELISA CPE mutant ratio (1:9, pH 6.0/7.4) [1]	Affinity ELISA CPE mutant ratio (1:3, pH 6.0/7.4) [2]	Affinity ELISA CPE mutant ratio (1:9, pH 6.0/7.4) [2]	Affinity ELISA CPE mutant ratio (1:3, pH 6.0/7.4) [3]
LC-F092C (antibody, V domains shown) VH: EVQLVQSGAEVKKPGATVKISCKVSGYSFTGHTMNWIRQPPGKGLEWIGLIKPSNGGTSYNQKFKGRVTISADKSISTAYLQWSSLKASDTAMYYCAHGHYESYFAMDYWGQGTLVTVSS VL: DIQMTQSPSSLSASVGDRVTITCKASQDVSSAVAWYQQKPGQAPRLLIYWASTRHTGVPSRFSGSGSGTEFTLTISSLQPDDFATYYCQEHCSTPLTFGQGTKVEIK	4.58	3.862	4.576	3.86
LC-A034Q (antibody, V domains shown) VH: EVQLVQSGAEVKKPGATVKISCKVSGYSFTGHTMNWIRQPPGKGLEWIGLIKPSNGGTSYNQKFKGRVTISADKSISTAYLQWSSLKASDTAMYYCAHGHYESYFAMDYWGQGTLVTVSS VL: DIQMTQSPSSLSASVGDRVTITCKASQDVSSAVQWYQQKPGQAPRLLIYWASTRHTGVPSRFSGSGSGTEFTLTISSLQPDDFATYYCQEHFSTPLTFGQGTKVEIK	1.41	1.999	1.409	2
LC-W050F (antibody, V domains shown) VH: EVQLVQSGAEVKKPGATVKISCKVSGYSFTGHTMNWIRQPPGKGLEWIGLIKPSNGGTSYNQKFKGRVTISADKSISTAYLQWSSLKASDTAMYYCAHGHYESYFAMDYWGQGTLVTVSS VL: DIQMTQSPSSLSASVGDRVTITCKASQDVSSAVAWYQQKPGQAPRLLIYFASTRHTGVPSRFSGSGSGTEFTLTISSLQPDDFATYYCQEHFSTPLTFGQGTKVEIK	3.5	2.245	3.504	2.25
LC-F092D (antibody, V domains shown) VH: EVQLVQSGAEVKKPGATVKISCKVSGYSFTGHTMNWIRQPPGKGLEWIGLIKPSNGGTSYNQKFKGRVTISADKSISTAYLQWSSLKASDTAMYYCAHGHYESYFAMDYWGQGTLVTVSS VL: DIQMTQSPSSLSASVGDRVTITCKASQDVSSAVAWYQQKPGQAPRLLIYWASTRHTGVPSRFSGSGSGTEFTLTISSLQPDDFATYYCQEHDSTPLTFGQGTKVEIK	2.94	2.969	2.940	2.97
LC-A034N (antibody, V domains shown) VH: EVQLVQSGAEVKKPGATVKISCKVSGYSFTGHTMNWIRQPPGKGLEWIGLIKPSNGGTSYNQKFKGRVTISADKSISTAYLQWSSLKASDTAMYYCAHGHYESYFAMDYWGQGTLVTVSS VL: DIQMTQSPSSLSASVGDRVTITCKASQDVSSAVNWYQQKPGQAPRLLIYWASTRHTGVPSRFSGSGSGTEFTLTISSLQPDDFATYYCQEHFSTPLTFGQGTKVEIK	2.4	2.626	2.403	2.63
LC-F092N (antibody, V domains shown) VH: EVQLVQSGAEVKKPGATVKISCKVSGYSFTGHTMNWIRQPPGKGLEWIGLIKPSNGGTSYNQKFKGRVTISADKSISTAYLQWSSLKASDTAMYYCAHGHYESYFAMDYWGQGTLVTVSS VL: DIQMTQSPSSLSASVGDRVTITCKASQDVSSAVAWYQQKPGQAPRLLIYWASTRHTGVPSRFSGSGSGTEFTLTISSLQPDDFATYYCQEHNSTPLTFGQGTKVEIK	2	1.933	2.004	1.93
LC-F092E (antibody, V domains shown) VH: EVQLVQSGAEVKKPGATVKISCKVSGYSFTGHTMNWIRQPPGKGLEWIGLIKPSNGGTSYNQKFKGRVTISADKSISTAYLQWSSLKASDTAMYYCAHGHYESYFAMDYWGQGTLVTVSS VL: DIQMTQSPSSLSASVGDRVTITCKASQDVSSAVAWYQQKPGQAPRLLIYWASTRHTGVPSRFSGSGSGTEFTLTISSLQPDDFATYYCQEHESTPLTFGQGTKVEIK	2	1.759	1.999	1.76
LC-T094C (antibody, V domains shown) VH: EVQLVQSGAEVKKPGATVKISCKVSGYSFTGHTMNWIRQPPGKGLEWIGLIKPSNGGTSYNQKFKGRVTISADKSISTAYLQWSSLKASDTAMYYCAHGHYESYFAMDYWGQGTLVTVSS VL: DIQMTQSPSSLSASVGDRVTITCKASQDVSSAVAWYQQKPGQAPRLLIYWASTRHTGVPSRFSGSGSGTEFTLTISSLQPDDFATYYCQEHFSCPLTFGQGTKVEIK	1.77	1.423	1.768	1.42
LC-A032M (antibody, V domains shown) VH: EVQLVQSGAEVKKPGATVKISCKVSGYSFTGHTMNWIRQPPGKGLEWIGLIKPSNGGTSYNQKFKGRVTISADKSISTAYLQWSSLKASDTAMYYCAHGHYESYFAMDYWGQGTLVTVSS VL: DIQMTQSPSSLSASVGDRVTITCKASQDVSSMVAWYQQKPGQAPRLLIYWASTRHTGVPSRFSGSGSGTEFTLTISSLQPDDFATYYCQEHFSTPLTFGQGTKVEIK	2.92	4.757	2.920	4.76
LC-A034D (antibody, V domains shown) VH: EVQLVQSGAEVKKPGATVKISCKVSGYSFTGHTMNWIRQPPGKGLEWIGLIKPSNGGTSYNQKFKGRVTISADKSISTAYLQWSSLKASDTAMYYCAHGHYESYFAMDYWGQGTLVTVSS VL: DIQMTQSPSSLSASVGDRVTITCKASQDVSSAVDWYQQKPGQAPRLLIYWASTRHTGVPSRFSGSGSGTEFTLTISSLQPDDFATYYCQEHFSTPLTFGQGTKVEIK	2.6	3.005	2.599	3
LC-A051I (antibody, V domains shown) VH: EVQLVQSGAEVKKPGATVKISCKVSGYSFTGHTMNWIRQPPGKGLEWIGLIKPSNGGTSYNQKFKGRVTISADKSISTAYLQWSSLKASDTAMYYCAHGHYESYFAMDYWGQGTLVTVSS VL: DIQMTQSPSSLSASVGDRVTITCKASQDVSSAVAWYQQKPGQAPRLLIYWISTRHTGVPSRFSGSGSGTEFTLTISSLQPDDFATYYCQEHFSTPLTFGQGTKVEIK	2.14	2.241	2.139	2.24
LC-F092G (antibody, V domains shown) VH: EVQLVQSGAEVKKPGATVKISCKVSGYSFTGHTMNWIRQPPGKGLEWIGLIKPSNGGTSYNQKFKGRVTISADKSISTAYLQWSSLKASDTAMYYCAHGHYESYFAMDYWGQGTLVTVSS VL: DIQMTQSPSSLSASVGDRVTITCKASQDVSSAVAWYQQKPGQAPRLLIYWASTRHTGVPSRFSGSGSGTEFTLTISSLQPDDFATYYCQEHGSTPLTFGQGTKVEIK	4.76	3.692	4.758	3.69
LC-F092S (antibody, V domains shown) VH: EVQLVQSGAEVKKPGATVKISCKVSGYSFTGHTMNWIRQPPGKGLEWIGLIKPSNGGTSYNQKFKGRVTISADKSISTAYLQWSSLKASDTAMYYCAHGHYESYFAMDYWGQGTLVTVSS VL: DIQMTQSPSSLSASVGDRVTITCKASQDVSSAVAWYQQKPGQAPRLLIYWASTRHTGVPSRFSGSGSGTEFTLTISSLQPDDFATYYCQEHSSTPLTFGQGTKVEIK	2.94	3.179	2.937	3.18
